Reference: PMC4643364 (Cancer cell, 2015)

Molecular target: T1, EphB4 labelled with NT-647 dye (UniProt P54760 16-539, NT-647 dye through primary amide coupling)
T1 sequence (looked up): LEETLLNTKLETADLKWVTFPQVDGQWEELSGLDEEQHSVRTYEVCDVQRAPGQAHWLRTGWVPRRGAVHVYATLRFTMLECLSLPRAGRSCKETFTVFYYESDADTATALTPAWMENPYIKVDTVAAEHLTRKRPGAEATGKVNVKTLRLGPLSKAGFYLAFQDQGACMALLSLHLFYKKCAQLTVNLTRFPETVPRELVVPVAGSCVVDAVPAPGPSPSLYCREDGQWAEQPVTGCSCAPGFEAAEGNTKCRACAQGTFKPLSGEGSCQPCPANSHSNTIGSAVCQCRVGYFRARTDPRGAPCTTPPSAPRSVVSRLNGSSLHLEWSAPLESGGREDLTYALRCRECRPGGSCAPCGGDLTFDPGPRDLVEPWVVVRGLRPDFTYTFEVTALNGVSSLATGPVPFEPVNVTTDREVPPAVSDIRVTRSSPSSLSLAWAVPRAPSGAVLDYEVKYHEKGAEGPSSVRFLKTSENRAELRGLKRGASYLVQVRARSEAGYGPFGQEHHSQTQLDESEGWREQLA
Assay: MST

Kd: 140 nM
B1: EphrinB2/Fc, purified recombinant protein (Fc fusion, UniProt P52799 28-229, looked up)
chain: IVLEPIYWNSSNSKFLPGQGLVLYPQIGDKLDIICPKVDSKTVGQYEYYKVYMVDKDQADRCTIKKENTPLLNCAKPDQDIKFTIKFQEFSPNLWGLEFQKNKDYYIISTSNGSLEGLDNQEGGVCQTRAMKILMKVGQDASSAGSTRNKDPTRRPELEAGTNGRSSTTSPFVKPNPGSSTDGNSAGHSGNNILGSEVALFA
